Publication PMC6249546

Molecular target: T1, His-EmrR (Chromobacterium violaceum ATCC 12472) (UniProt Q7P000)
T1 sequence: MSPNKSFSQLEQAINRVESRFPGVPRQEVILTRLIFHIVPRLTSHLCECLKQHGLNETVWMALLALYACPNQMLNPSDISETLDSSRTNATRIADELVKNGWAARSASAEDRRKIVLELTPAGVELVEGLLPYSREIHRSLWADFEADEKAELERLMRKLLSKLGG
Assay: EMSA
Conditions: 32P-labelled PCR probes, 100-300 nM DTT-reduced His-EmrR, interaction buffer as in da Silva Neto 2012 and Previato-Mello 2017 (composition, pH …)

TTGGATCCGAAGGCCAGGCGCTGCATCTGGGCGGCGCCCACCCGAGCGCGCTGGAAAAACTGCTGTTCCCGCGGCTGGAAACCAGCCAGCTGCTGGGCGGCGGCAGCCAGCCGCTGCGGCTGACGCTGAGCTGGCAACAGGGTTGGGCGCAGATCGGCCTGTTCGAATGGACGGTGTGGCTGCTGCTGTCGCTGCTGCTGGGCCTGGGCATAGGCCTGGCCGGCTTCAGCTTCGTGCGCAGCAGCGACAGCTGCAGTAAT (double strand) [CV_0208 coding region]
binding: binds more weakly

TTGGCAGAGCTCCAATGATGCATGTCGGTCCGGACGTGATTAATCTGGTGATAATCACCCGGGTTATTATTCGAGTGAAAAAGCGCGGGCTCAGCCAAGCTTATA (double strand) [emrCAB promoter]
binding: binds

TTGGCACTGCAGCAAATAAGCCTGCCCGTGGCGGCGCCTCCCCCGCCGCCACTCTCCCTCCTTCCCCCGTCTCGCCGGCCCTTCGGCTGCCGCCGTCTACCGGCCGCCAATCTAACCCATTGTCATTTCGCCACACTTTTCGCCAGCATTTCATTAGCAAGGTTATTATTACTTGCAAAATAATACCGCACGTTACTAAAATGGCCGCATGAGTCCAAACAAGAAGCTTATA (double strand) [emrR promoter]
binding: binds
